According to patent US20230395193A1 (priority 2020, published 2023):

B1: M-Q9BV40 (protein, UniProt Q9BV40 1-100, looked up)
Vesicle-associated membrane …: MEEASEGGGNDRVRNLQSEVEGVKNIMTQNVERILARGENLEHLRNKTEDLEATSEHFKTTSQKVARKFWWKNVKMIVLICVIVFIIILFIVLFATGAFS
modifications: host interactor of M
B2: M-Q9BQT8 (protein, UniProt Q9BQT8 1-299, looked up)
Mitochondrial …: MSAKPEVSLVREASRQIVAGGSAGLVEICLMHPLDVVKTRFQIQRCATDPNSYKSLVDSFRMIFQMEGLFGFYKGILPPILAETPKRAVKFFTFEQYKKLLGYVSLSPALTFAIAGLGSGLTEAIVVNPFEVVKVGLQANRNTFAEQPSTVGYARQIIKKEGWGLQGLNKGLTATLGRHGVFNMVYFGFYYNVKNMIPVNKDPILEFWRKFGIGLLSGTIASVINIPFDVAKSRIQGPQPVPGEIKYRTCFKTMATVYQEEGILALYKGLLPKIMRLGPGGAVMLLVYEYTYSWLQENW
modifications: interaction partner of viral M protein
B3: M-Q9NVI1 (protein, UniProt Q9NVI1 1-1328, looked up)
Fanconi anemia group I protein: MDQKILSLAAEKTADKLQEFLQTLREGDLTNLLQNQAVKGKVAGALLRAIFKGSPCSEEAGTLRRRKIYTCCIQLVESGDLQKEIASEIIGLLMLEAHHFPGPLLVELANEFISAVREGSLVNGKSLELLPIILTALATKKENLAYGKGVLSGEECKKQLINTLCSGRWDQQYVIQLTSMFKDVPLTAEEVEFVVEKALSMFSKMNLQEIPPLVYQLLVLSSKGSRKSVLEGIIAFFSALDKQHNEEQSGDELLDVVTVPSGELRHVEGTIILHIVFAIKLDYELGRELVKHLKVGQQGDSNNNLSPFSIALLLSVTRIQRFQDQVLDLLKTSVVKSFKDLQLLQGSKFLQNLVPHRSYVSTMILEVVKNSVHSWDHVTQGLVELGFILMDSYGPKKVLDGKTIETSPSLSRMPNQHACKLGANILLETFKIHEMIRQEILEQVLNRVVTRASSPISHFLDLLSNIVMYAPLVLQSCSSKVTEAFDYLSFLPLQTVQRLLKAVQPLLKVSMSMRDCLILVLRKAMFANQLDARKSAVAGFLLLLKNFKVLGSLSSSQCSQSLSVSQVHVDVHSHYNSVANETFCLEIMDSLRRCLSQQADVRLMLYEGFYDVLRRNSQLANSVMQTLLSQLKQFYEPKPDLLPPLKLEACILTQGDKISLQEPLDYLLCCIQHCLAWYKNTVIPLQQGEEEEEEEEAFYEDLDDILESITNRMIKSELEDFELDKSADFSQSTSIGIKNNICAFLVMGVCEVLIEYNFSISSFSKNRFEDILSLFMCYKKLSDILNEKAGKAKTKMANKTSDSLLSMKFVSSLLTALFRDSIQSHQESLSVLRSSNEFMRYAVNVALQKVQQLKETGHVSGPDGQNPEKIFQNLCDITRVLLWRYTSIPTSVEESGKKEKGKSISLLCLEGLQKIFSAVQQFYQPKIQQFLRALDVTDKEGEEREDADVSVTQRTAFQIRQFQRSLLNLLSSQEEDFNSKEALLLVTVLTSLSKLLEPSSPQFVQMLSWTSKICKENSREDALFCKSLMNLLFSLHVSYKSPVILLRDLSQDIHGHLGDIDQDVEVEKTNHFAIVNLRTAAPTVCLLVLSQAEKVLEEVDWLITKLKGQVSQETLSEEASSQATLPNQPVEKAIIMQLGTLLTFFHELVQTALPSGSCVDTLLKDLCKMYTTLTALVRYYLQVCQSSGGIPKNMEKLVKLSGSHLTPLCYSFISYVQNKSKSLNYTGEKKEKPAAVATAMARVLRETKPIPNLIFAIEQYEKFLIHLSKKSKVNLMQHMKLSTSRDFKIKGNILDMVLREDGEDENEEGTASEHGGQNKEPAKKKRKK
modifications: interactor of viral M protein
B4: M-Q9UBU6 (protein, UniProt Q9UBU6 1-413, looked up)
Protein FAM8A1: MAEGPEEARGHPPGQDDGGGDHEPVPSLRGPPTTAVPCPRDDPQAEPQAPGRPTAPGLAAAAAADKLEPPRELRKRGEAASGSGAELQEQAGCEAPEAAAPRERPARLSAREYSRQVHEWLWQSYCGYLTWHSGLAAFPAYCSPQPSPQSFPSGGAAVPQAAAPPPPQLGYYNPFYFLSPGAAGPDPRTAAGISTPAPVAGLGPRAPHVQASVRATPVTRVGSAAPSRSPSETGRQAGREYVIPSLAHRFMAEMVDFFILFFIKATIVLSIMHLSGIKDISKFAMHYIIEEIDEDTSMEDLQKMMVVALIYRLLVCFYEIICIWGAGGATPGKFLLGLRVVTCDTSVLIAPSRVLVIPSSNVSITTSTIRALIKNFSIASFFPAFITLLFFQHNRTAYDIVAGTIVVKRNGVR
modifications: interaction partner of viral M protein
B5: M-Q9BQ95 (protein, UniProt Q9BQ95 49-431, looked up)
Evolutionarily conserved …: SSEQSLVPSPPEPRQRPTKALVPFEDLFGQAPGGERDKASFLQTVQKFAEHSVRKRGHIDFIYLALRKMREYGVERDLAVYNQLLNIFPKEVFRPRNIIQRIFVHYPRQQECGIAVLEQMENHGVMPNKETEFLLIQIFGRKSYPMLKLVRLKLWFPRFMNVNPFPVPRDLPQDPVELAMFGLRHMEPDLSARVTIYQVPLPKDSTGAADPPQPHIVGIQSPDQQAALARHNPARPVFVEGPFSLWLRNKCVYYHILRADLLPPEEREVEETPEEWNLYYPMQLDLEYVRSGWDNYEFDINEVEEGPVFAMCMAGAHDQATMAKWIQGLQETNPTLAQIPVVFRLAGSTRELQTSSAGLEEPPLPEDHQEEDDNLQRQQQGQS
B6: M-Q9BYC5 (protein, UniProt Q9BYC5 1-575, looked up)
Alpha-(1,6)-fucosyltransferase: MRPWTGSWRWIMLILFAWGTLLFYIGGHLVRDNDHPDHSSRELSKILAKLERLKQQNEDLRRMAESLRIPEGPIDQGPAIGRVRVLEEQLVKAKEQIENYKKQTRNGLGKDHEILRRRIENGAKELWFFLQSELKKLKNLEGNELQRHADEFLLDLGHHERSIMTDLYYLSQTDGAGDWREKEAKDLTELVQRRITYLQNPKDCSKAKKLVCNINKGCGYGCQLHHVVYCFMIAYGTQRTLILESQNWRYATGGWETVFRPVSETCTDRSGISTGHWSGEVKDKNVQVVELPIVDSLHPRPPYLPLAVPEDLADRLVRVHGDPAVWWVSQFVKYLIRPQPWLEKEIEEATKKLGFKHPVIGVHVRRTDKVGTEAAFHPIEEYMVHVEEHFQLLARRMQVDKKRVYLATDDPSLLKEAKTKYPNYEFISDNSISWSAGLHNRYTENSLRGVILDIHFLSQADFLVCTFSSQVCRVAYEIMQTLHPDASANFHSLDDIYYFGGQNAHNQIAIYAHQPRTADEIPMEPGDIIGVAGNHWDGYSKGVNRKLGRTGLYPSYKVREKIETVKYPTYPEAEK
modifications: interaction partner of SARS-CoV-2 M
B7: M-Q9NQC3 (protein, UniProt Q9NQC3 1-1192, looked up)
Reticulon-4: MEDLDQSPLVSSSDSPPRPQPAFKYQFVREPEDEEEEEEEEEEDEDEDLEELEVLERKPAAGLSAAPVPTAPAAGAPLMDFGNDFVPPAPRGPLPAAPPVAPERQPSWDPSPVSSTVPAPSPLSAAAVSPSKLPEDDEPPARPPPPPPASVSPQAEPVWTPPAPAPAAPPSTPAAPKRRGSSGSVDETLFALPAASEPVIRSSAENMDLKEQPGNTISAGQEDFPSVLLETAASLPSLSPLSAASFKEHEYLGNLSTVLPTEGTLQENVSEASKEVSEKAKTLLIDRDLTEFSELEYSEMGSSFSVSPKAESAVIVANPREEIIVKNKDEEEKLVSNNILHNQQELPTALTKLVKEDEVVSSEKAKDSFNEKRVAVEAPMREEYADFKPFERVWEVKDSKEDSDMLAAGGKIESNLESKVDKKCFADSLEQTNHEKDSESSNDDTSFPSTPEGIKDRSGAYITCAPFNPAATESIATNIFPLLGDPTSENKTDEKKIEEKKAQIVTEKNTSTKTSNPFLVAAQDSETDYVTTDNLTKVTEEVVANMPEGLTPDLVQEACESELNEVTGTKIAYETKMDLVQTSEVMQESLYPAAQLCPSFEESEATPSPVLPDIVMEAPLNSAVPSAGASVIQPSSSPLEASSVNYESIKHEPENPPPYEEAMSVSLKKVSGIKEEIKEPENINAALQETEAPYISIACDLIKETKLSAEPAPDFSDYSEMAKVEQPVPDHSELVEDSSPDSEPVDLFSDDSIPDVPQKQDETVMLVKESLTETSFESMIEYENKEKLSALPPEGGKPYLESFKLSLDNTKDTLLPDEVSTLSKKEKIPLQMEELSTAVYSNDDLFISKEAQIRETETFSDSSPIEIIDEFPTLISSKTDSFSKLAREYTDLEVSHKSEIANAPDGAGSLPCTELPHDLSLKNIQPKVEEKISFSDDFSKNGSATSKVLLLPPDVSALATQAEIESIVKPKVLVKEAEKKLPSDTEKEDRSPSAIFSAELSKTSVVDLLYWRDIKKTGVVFGASLFLLLSLTVFSIVSVTAYIALALLSVTISFRIYKGVIQAIQKSDEGHPFRAYLESEVAISEELVQKYSNSALGHVNCTIKELRRLFLVDDLVDSLKFAVLMWVFTYVGALFNGLTLLILALISLFSVPVIYERHQAQIDHYLGLANKNVKDAMAKIQAKIPGLKRKAE

System: SARS-CoV-1, MERS-CoV and SARS-CoV-2 proteins in HEK293T cells
Parameters: species or system human

Molecule	MIST_MERS	MIST_SARS1	MIST_SARS2	Saint_MERS	Saint_SARS1	Saint_SARS2
B1	0.9874	0	0	1	0	0
B2	0.4327	0.6946	0.8808	0	0.65	0.65
B3	0.8133	0.7245	0.5573	1	1	1
B4	0	0.88	0.8045	0	0.63	0.97
B5	0	0.9893	0	0	0.97	0
B6	0.963	0	0	0.98	0	0
B7	0	0.4448	0.8738	0	1	1
